# Measurements: the RNAGym collection of RNA variant scans (doi:10.7554/elife.80360)
# B1: CPEB3 Ribozyme (parent)
# chain: GGGGGCCACAGCAGAAGCGUUCACGUCGCGGCCCCUGUCAGAUUCUGGUGAAUCUGCGAAUUCUGCUGU
# Variants of: B1
# Assay: self-cleavage, relative activity (ratio to wild type); higher = more cleavage; co-transcriptional
row,Variant,self-cleavage
1,GGGGGCCACAGAAGAAGCGUUCACGUCGCGGCCCCUGUCAGAUUCUGGUGAAUCUGCGAAUGCUGCUGU [C12A U62G],0.312
2,GGGGGCCACAGAAGAAGCGUUCACGUCGCGGCCCCUGUCAGAUUCUGGUGAAUCUGCGAAUACUGCUGU [C12A U62A],0.248
3,GGGGGCCACAGGAGAAGCGUUCACGUCGCGGCGCCUGUCAGAUUCUGGUGAAUCUGCGAAUUCUGCUGU [C12G C33G],0.316
4,GGGGGCCACAGGAGAAGCGUUCACGUCGCGGCACCUGUCAGAUUCUGGUGAAUCUGCGAAUUCUGCUGU [C12G C33A],0.68
5,GGGGGCCACAGAAGAAGCGUUCACGUCGCGGCCCCUGUCAGAUUCUGGUGAAUCUGCGAAUUCGGCUGU [C12A U64G],0.674
6,GGGGGCCACAGAAGAAGCGUUCACGUCGCGGCCCCUGUCAGAUUCUGGUGAAUCUGCGAAUUCUGCGGU [C12A U67G],0.791
7,GGGGGCCACAGAAGAAGCGUUCACGUCGCGGCCCCUGUCAGAUUCUGGUGAAUCUGCGAAUUCUGCAGU [C12A U67A],0.671
8,GGGGGCCACAGAAGAAGCGUUCACGUCGCGGCCCCUGUCAGAUUCUGGUGAAUCUGCGAAUUCUGCCGU [C12A U67C],0.812
9,GGGGGCCACAGGAGAACCGUUCACGUCGCGGCCCCUGUCAGAUUCUGGUGAAUCUGCGAAUUCUGCUGU [C12G G17C],0.0979
10,GGGGGCCACAGGAGAAACGUUCACGUCGCGGCCCCUGUCAGAUUCUGGUGAAUCUGCGAAUUCUGCUGU [C12G G17A],0.148
11,GGGGGCCACAGGAGAAGCGUUCACGUCGCGGCCCCUGUCAGAUUCUGGUGAGUCUGCGAAUUCUGCUGU [C12G A52G],0.94
12,GGGGGCCACAGGAGAAGCGUUCACGUCGCGGCCCCUGUCAGAUUCUGGUGACUCUGCGAAUUCUGCUGU [C12G A52C],0.792
13,GGGGGCCACAGGAGAAGCGUUCACGUCGCGGCCCCUGUCAGAUUCUGGUGAUUCUGCGAAUUCUGCUGU [C12G A52U],0.852
14,GGGGGCCACAGGAGAAGCGUUCACGUCGCGCCCCCUGUCAGAUUCUGGUGAAUCUGCGAAUUCUGCUGU [C12G G31C],0.217
15,GGGGGCCACAGGAGAAGCGUUCACGUCGCGACCCCUGUCAGAUUCUGGUGAAUCUGCGAAUUCUGCUGU [C12G G31A],0.334
16,GGGGGCCACAGGAGAAGCGUUCACGUCGCGUCCCCUGUCAGAUUCUGGUGAAUCUGCGAAUUCUGCUGU [C12G G31U],0.206
17,GGGGGCCACAGGAGAAGCGUUCACGUCGCGGCCCUUGUCAGAUUCUGGUGAAUCUGCGAAUUCUGCUGU [C12G C35U],0.83
18,GGGGGCCACAGGUGAAGCGUUCACGUCGCGGCCCCUGUCAGAUUCUGGUGAAUCUGCGAAUUCUGCUGU [C12G A13U],0.129
19,GGGGGCCACAGGCGAAGCGUUCACGUCGCGGCCCCUGUCAGAUUCUGGUGAAUCUGCGAAUUCUGCUGU [C12G A13C],0.26
20,GGGGGCCACAGGAGAAGAGUUCACGUCGCGGCCCCUGUCAGAUUCUGGUGAAUCUGCGAAUUCUGCUGU [C12G C18A],0.185
21,GGGGGCCACAGGAGAAGGGUUCACGUCGCGGCCCCUGUCAGAUUCUGGUGAAUCUGCGAAUUCUGCUGU [C12G C18G],0.0782
22,GGGGGCCACAGGAGAAGUGUUCACGUCGCGGCCCCUGUCAGAUUCUGGUGAAUCUGCGAAUUCUGCUGU [C12G C18U],0.178
23,GGGGGCCACAGGAGAAGCGUUUACGUCGCGGCCCCUGUCAGAUUCUGGUGAAUCUGCGAAUUCUGCUGU [C12G C22U],0.149
24,GGGGGCCACAGGAGAAGCGUUCACGUCGCGGCCCCUGUCAGAUUCUGAUGAAUCUGCGAAUUCUGCUGU [C12G G48A],0.953
25,GGGGGCCACAGGAGAAGCGUUCACGUCGCGGCCCCUGUCAGAUUCUGGUGAAUCUGCGAAUUCUGGUGU [C12G C66G],0.513
26,GGGGGCCACAGGAGAAGCGUUCACGUCGCGGCCCCUGUCAGAUUCUGGUGAAUCUGCGAAUUCUGUUGU [C12G C66U],0.69

row,Variant,self-cleavage
1,GGGGGCCACAGGAGAAGCGUUCACGUCGCGGCCCCUGUCAGAUUCUGGUGAAUCUGCGAAUUCUGAUGU [C12G C66A],0.487
2,GGGGGCCACAGGAGAAGCGUUCACGUCGCGGCCCCUGUCAGAUUCUGGUGAAUCUGCGCAUUCUGCUGU [C12G A59C],0.339
3,GGGGGCCACAGGAGAAGCGUUCACGUCGCGGCCCCUGUCAGAUUCUGGUGAAUCUGCGGAUUCUGCUGU [C12G A59G],0.802
4,GGGGGCCACAGAAGAAGCGUUCACGUCGCGGCCCCUGUCAGAUUCUGGUGAAUCUGCGAAGUCUGCUGU [C12A U61G],0.316
5,GGGGGCCACAGAAGAAGCGUUCACGUCGCGGCCCCUGUCAGAUUCUGGUGAAUCUGCGAAAUCUGCUGU [C12A U61A],0.312
6,GGGGGCCACAGAAGAAGCGUUCACGUCGCGGCCCCUGUCAGAUUCUGGUGAAUCUGCGAACUCUGCUGU [C12A U61C],0.246
7,GGGGGCCACAGGAGAAGCGUUCACGUCGCGGCCCCUGUCAGAUUCUUGUGAAUCUGCGAAUUCUGCUGU [C12G G47U],0.965
8,GGGGGCCACAGGAGAAGCGUUCACGUCGCGGCCCCUGUCAGAUUCUCGUGAAUCUGCGAAUUCUGCUGU [C12G G47C],0.888
9,GGGGGCCACAGGAGAAGCGUUCACGUCGCGGCCCCUGUCAGAUUCUAGUGAAUCUGCGAAUUCUGCUGU [C12G G47A],0.912
10,GGGGGCCACAGGAGAAGCGUUCACGUCGCGGCCCCUGUUAGAUUCUGGUGAAUCUGCGAAUUCUGCUGU [C12G C39U],0.533
11,GGGGGCCACAGGAGAAGCGUUCACGUCGCGGCCCCUGUGAGAUUCUGGUGAAUCUGCGAAUUCUGCUGU [C12G C39G],0.455
12,GGGGGCCACAGGAGAAGCGUUCACGUCGCGGCCCCUGUCAGAUUUUGGUGAAUCUGCGAAUUCUGCUGU [C12G C45U],0.868
13,GGGGGCCACAGGAGAAGCGUUCACGUCGCGGCCCCUGUCAGAUUAUGGUGAAUCUGCGAAUUCUGCUGU [C12G C45A],0.728
14,GGGGGCCACAGGAGAAGCGUUCACGUCGCGGCCCCUGUCAGAUUGUGGUGAAUCUGCGAAUUCUGCUGU [C12G C45G],0.819
15,GGGGGCCACAGGAGAGGCGUUCACGUCGCGGCCCCUGUCAGAUUCUGGUGAAUCUGCGAAUUCUGCUGU [C12G A16G],0.578
16,GGGGGCCACAGGAGAAGCGUUCACAUCGCGGCCCCUGUCAGAUUCUGGUGAAUCUGCGAAUUCUGCUGU [C12G G25A],0.161
17,GGGGGCCACAGGAGAAGCGUUCACUUCGCGGCCCCUGUCAGAUUCUGGUGAAUCUGCGAAUUCUGCUGU [C12G G25U],0.101
18,GGGGGCCACAGGAGAAGCGUUCACGUCGCGGCCCCUGUCAGAUUCUGGUGAAUUUGCGAAUUCUGCUGU [C12G C54U],0.828
19,GGGGGCCACAGGAGAAGCGUUCACGUCGCGGCCCCUGUCAGAUUCUGGUGAAUAUGCGAAUUCUGCUGU [C12G C54A],0.416
20,GGGGGCCACAGGAGAAGCGUUCACGUCGCGGCCCCUGUCAAAUUCUGGUGAAUCUGCGAAUUCUGCUGU [C12G G41A],0.353
21,GGGGGCCACAGGAGAAGCGUUCACGUCACGGCCCCUGUCAGAUUCUGGUGAAUCUGCGAAUUCUGCUGU [C12G G28A],0.163
22,GGGGGCCACAGGAGAAGCGUUCACGUCCCGGCCCCUGUCAGAUUCUGGUGAAUCUGCGAAUUCUGCUGU [C12G G28C],0.157
23,GGGGGCCACAGGAGAAGCGUUCACGUUGCGGCCCCUGUCAGAUUCUGGUGAAUCUGCGAAUUCUGCUGU [C12G C27U],0.0756
24,GGGGGCCACAGGAGAAGCGUUCACGUAGCGGCCCCUGUCAGAUUCUGGUGAAUCUGCGAAUUCUGCUGU [C12G C27A],0.216
25,GGGGGCCACAGGAGAAGCGUUCACGUCGCGGCCCCUGUCUGAUUCUGGUGAAUCUGCGAAUUCUGCUGU [C12G A40U],0.404
26,GGGGGCCACAGGAGAAGCGUUCACGUCGCGGCCCCUGUCGGAUUCUGGUGAAUCUGCGAAUUCUGCUGU [C12G A40G],0.672

row,Variant,self-cleavage
1,GGGGGCCACAGGAGAAGCGUUCACGUCGAGGCCCCUGUCAGAUUCUGGUGAAUCUGCGAAUUCUGCUGU [C12G C29A],0.213
2,GGGGGCCACAGGAGAAGCGUUCACGUCGUGGCCCCUGUCAGAUUCUGGUGAAUCUGCGAAUUCUGCUGU [C12G C29U],0.137
3,GGGGGCCACAGAAGAAGCGUUCACGUCGCGGCCCCUGUCAGAUUCUGGUGAAUCUGCGAAUUCUGCUGC [C12A U69C],0.981
4,GGGGGCCACAGAAGAAGCGUUCACGUCGCGGCCCCUGUCAGAUUCUGGUGAAUCUGCGAAUUCUGCUGA [C12A U69A],0.886
5,GGGGGCCACAGGAGAAGCGUUCACGUCGCGGCCCCUGUCAGUUUCUGGUGAAUCUGCGAAUUCUGCUGU [C12G A42U],0.61
6,GGGGGCCACAGGAGAAGCGUUCACGUCGCGGCCCCUGUCAGCUUCUGGUGAAUCUGCGAAUUCUGCUGU [C12G A42C],0.493
7,GGGGGCCACAGGAGAAGCGUUCACGUCGCGGCCCCUGUCAGGUUCUGGUGAAUCUGCGAAUUCUGCUGU [C12G A42G],0.649
8,GGGGGCCACAGGAGAAGCGUUCACGUCGCGGCCCCUGUCAGAUUCUGGUGAAUCUGCGAAUUAUGCUGU [C12G C63A],0.218
9,GGGGGCCACAGGAGAAGCGUUCACGUCGCGGCCCCUGUCAGAUUCUGGUGAAUCUGCGAAUUGUGCUGU [C12G C63G],0.339
10,GGGGGCCACAGGAGAAGCGUUCACGUCGCGGCCACUGUCAGAUUCUGGUGAAUCUGCGAAUUCUGCUGU [C12G C34A],0.699
11,GGGGGCCACAGGAGAAGCGUUCACGUCGCGGCCUCUGUCAGAUUCUGGUGAAUCUGCGAAUUCUGCUGU [C12G C34U],0.89
12,GGGGGCCACAGGAGUAGCGUUCACGUCGCGGCCCCUGUCAGAUUCUGGUGAAUCUGCGAAUUCUGCUGU [C12G A15U],0.171
13,GGGGGCCACAGGAGCAGCGUUCACGUCGCGGCCCCUGUCAGAUUCUGGUGAAUCUGCGAAUUCUGCUGU [C12G A15C],0.301
14,GGGGGCCACAGGAGGAGCGUUCACGUCGCGGCCCCUGUCAGAUUCUGGUGAAUCUGCGAAUUCUGCUGU [C12G A15G],0.613
15,GGGGGCCACAGGAGAAGCGUUCACGUCGCGGCCCCUGUCAGAUUCUGGUGAAUCUGAGAAUUCUGCUGU [C12G C57A],0.25
16,GGGGGCCACAGGAGAAGCGUUCACGUCGCGGCCCCUGUCAGAUUCUGGUGAAUCUGGGAAUUCUGCUGU [C12G C57G],0.427
17,GGGGGCCACAGGAGAAGCGUUCACGUCGCGGCCCCUGUCAGAUUCUGGUGAAUCUGUGAAUUCUGCUGU [C12G C57U],0.336
18,GGGGGCCACAGGAGAAGCGUUCACGUCGCGGCCCCUGUCAGAUUCUGGUGCAUCUGCGAAUUCUGCUGU [C12G A51C],0.79
19,GGGGGCCACAGGAGAAGCGUUCACGUCGCGGCCCCUGUCAGAUUCUGGUGGAUCUGCGAAUUCUGCUGU [C12G A51G],0.887
20,GGGGGCCACAGGAGAAGCGUUCACGUCGCGGCCCCUGUCAGAUUCUGGUGAAUCUGCGAGUUCUGCUGU [C12G A60G],0.451
21,GGGGGCCACAGGAGAAGCGUUCACGUCGCGGCCCCUGUCAGAUUCUGGUGAAUCUGCGACUUCUGCUGU [C12G A60C],0.277
22,GGGGGCCACAGGAGAAGCGUUCACGUCGCGGCCCCUAUCAGAUUCUGGUGAAUCUGCGAAUUCUGCUGU [C12G G37A],0.174
23,GGGGGCCACAGGAGAAGCGUUCACGUCGCCGCCCCUGUCAGAUUCUGGUGAAUCUGCGAAUUCUGCUGU [C12G G30C],0.367
24,GGGGGCCACAGGAGAAGCGUUCACGUCGCGGGCCCUGUCAGAUUCUGGUGAAUCUGCGAAUUCUGCUGU [C12G C32G],0.334
25,GGGGGCCACAGGAGAAGCGUUCACGUCGCGGACCCUGUCAGAUUCUGGUGAAUCUGCGAAUUCUGCUGU [C12G C32A],0.224
26,GGGGGCCACAGGAGAAGCGUUCACGUCGCGGUCCCUGUCAGAUUCUGGUGAAUCUGCGAAUUCUGCUGU [C12G C32U],0.834
